Measurements: the supplement of paper PMC7877785
± gives the uncertainty stated by the source.

Test: self-splicing fitness, log relative to wild type (ln ratio); higher = more splicing; Tetrahymena group I intron in knt gene, E. coli kanamycin selection, DiMSum; sequences stand for … in CUCUCU…GGAGGGAAAAGUUAUCAGGCAUGCACCUGGUAGCUAGUCUUUAAACCAAUAGAUUGCAUCGGUUUAAAAGGCAAGACCGUCAAAUUGCGGGAAAGGGGUCAACAGCCGUUCAGUACCAAGUCUCAGGGGAAACUUUGAGAUGGCCUUGCAAAGGGUAUGGUAAUAAGCUGACGGACAUGGUCCUAACCACGCAGCCAAGUCCUAAGUCAACAGAUCUUCUGUUGAUAUGGAUGCAGUUCACAGACUAAAUGUCGGUCGGGGAAGAUGUAUUCUUCUCAUAAGAUAUAGUCGGACCUCUCCUUAAUGGGAGCUAGCGGAUGAAGUGAUGCAACACUGGAGCCGCUGGGAACUAAUUUGUAUGCGAAAGUAUAUUGAUUAGUUUUGGAGUACUCGUGGUCG
How it was run: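 Pooled colonies went to amplicon sequencing on an Illumina HiSeq 2500 after six replicate transformations. The plates were LB agar with 100 μg/mL carbenicillin, 50 μM IPTG and 0.2% rhamnose, with or without 25 μg/mL kanamycin, incubated overnight at 37°C or 30°C. The E. coli BL21(DE3) library had all eight P1ex-region intron nucleotides randomised, the intron placed in the knt kanamycin-resistance gene on pET-22b(+). DiMSum fitness is the error-weighted combination of replicate fold changes, kanamycin against none, normalised to wild type.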

Sequence | self-splicing fitness (ln) (30 °C) | self-splicing fitness (ln) (37 °C)
CUCGAGCAAUAUUACGAGGA | -1.94 ± 0.26 | –
CUCGAGCAAUAUUACGCAAG | -3.95 ± 0.43 | -1.35 ± 0.3
CUCGAGCAAUAUUACGCACG | -1.6 ± 0.23 | –
CUCGAGCAAUAUUACGCCUC | -1.8 ± 0.21 | –
CUCGAGCAAUAUUACGCGAG | -3.97 ± 0.42 | -2.98 ± 0.47
CUCGAGCAAUAUUACGCUGG | -4.31 ± 0.24 | -3.22 ± 0.22
CUCGAGCAAUAUUACGGCCU | – | -1.37 ± 0.36
CUCGAGCAAUAUUACGUAGC | – | -2.19 ± 0.27
CUCGAGCAAUAUUACGUCAG | – | -0.401 ± 0.39
CUCGAGCAAUAUUACGUCAU | -4.1 ± 0.27 | -3.38 ± 0.28
CUCGAGCAAUAUUACGUGAA | -2.47 ± 0.21 | -2.93 ± 0.47
CUCGAGCAAUAUUACGUGAU | -2.16 ± 0.14 | -0.542 ± 0.12
CUCGAGCAAUAUUACGUUUC | -1.78 ± 0.29 | -1.25 ± 0.25
CUCUAGCAAUAUUACGAAAC | -2.61 ± 0.35 | –
CUCUAGCAAUAUUACGAACC | -3.06 ± 0.37 | –
CUCUAGCAAUAUUACGAAGU | -3.44 ± 0.21 | -4.77 ± 0.23
CUCUAGCAAUAUUACGACAG | -1.95 ± 0.14 | -0.569 ± 0.13
CUCUAGCAAUAUUACGACCG | -0.158 ± 0.23 | -0.785 ± 0.24
CUCUAGCAAUAUUACGAGAA | -3.05 ± 0.41 | -2.02 ± 0.21
CUCUAGCAAUAUUACGAGAU | -3.29 ± 0.43 | -2.94 ± 0.31
CUCUAGCAAUAUUACGAGCA | -3.95 ± 0.33 | -3.04 ± 0.23

Sequence | self-splicing fitness (ln) (30 °C) | self-splicing fitness (ln) (37 °C)
CUCUAGCAAUAUUACGAUCG | -1.57 ± 0.081 | -0.281 ± 0.12
CUCUAGCAAUAUUACGAUGA | -1.93 ± 0.2 | -1.93 ± 0.29
CUCUAGCAAUAUUACGAUGC | -1.49 ± 0.17 | -3.25 ± 0.33
CUCUAGCAAUAUUACGAUUG | -1.48 ± 0.091 | -1.24 ± 0.12
CUCUAGCAAUAUUACGCCCU | -3.28 ± 0.26 | -2.2 ± 0.19
CUCUAGCAAUAUUACGCUUU | -3.13 ± 0.28 | -2.08 ± 0.22
CUCUAGCAAUAUUACGGCGG | -3.5 ± 0.15 | -3.12 ± 0.23
CUCUAGCAAUAUUACGGGGA | -1.69 ± 0.17 | -1.62 ± 0.14
CUCUAGCAAUAUUACGUCAA | -4.19 ± 0.29 | -3.45 ± 0.25
CUCUAGCAAUAUUACGUCAU | -2.83 ± 0.4 | -4.18 ± 0.39
CUCUAGCAAUAUUACGUCCC | -2.69 ± 0.27 | -3.71 ± 0.39
CUCUAGCAAUAUUACGUCUU | -2.57 ± 0.12 | -3.16 ± 0.16
CUCUAGCAAUAUUACGUUGA | -2.49 ± 0.27 | -3.81 ± 0.36
CUGAAGCAAUAUUACGAAAG | -0.525 ± 0.12 | -0.0848 ± 0.16
CUGAAGCAAUAUUACGACGU | -2.75 ± 0.12 | -1.09 ± 0.1
CUGAAGCAAUAUUACGAGCG | 0.242 ± 0.072 | 0.0253 ± 0.1
CUGAAGCAAUAUUACGAGUC | -3.88 ± 0.19 | -2.16 ± 0.21
CUGAAGCAAUAUUACGAUAA | -2.51 ± 0.25 | -2.06 ± 0.29
CUGAAGCAAUAUUACGCACU | -4.4 ± 0.39 | -1.32 ± 0.18
CUGAAGCAAUAUUACGCAGC | -3.2 ± 0.4 | -1.77 ± 0.45
